In this assay the target is anaphase-promoting complex/cyclosome (APC/C) complex (human (endogenous in HeLa)) (UniProt P30260). Put plainly: co-IP.

These results are taken from publication PMC4493999.

Chain of UniProt P30260 (P30260 whole entry, looked up, one chain of several): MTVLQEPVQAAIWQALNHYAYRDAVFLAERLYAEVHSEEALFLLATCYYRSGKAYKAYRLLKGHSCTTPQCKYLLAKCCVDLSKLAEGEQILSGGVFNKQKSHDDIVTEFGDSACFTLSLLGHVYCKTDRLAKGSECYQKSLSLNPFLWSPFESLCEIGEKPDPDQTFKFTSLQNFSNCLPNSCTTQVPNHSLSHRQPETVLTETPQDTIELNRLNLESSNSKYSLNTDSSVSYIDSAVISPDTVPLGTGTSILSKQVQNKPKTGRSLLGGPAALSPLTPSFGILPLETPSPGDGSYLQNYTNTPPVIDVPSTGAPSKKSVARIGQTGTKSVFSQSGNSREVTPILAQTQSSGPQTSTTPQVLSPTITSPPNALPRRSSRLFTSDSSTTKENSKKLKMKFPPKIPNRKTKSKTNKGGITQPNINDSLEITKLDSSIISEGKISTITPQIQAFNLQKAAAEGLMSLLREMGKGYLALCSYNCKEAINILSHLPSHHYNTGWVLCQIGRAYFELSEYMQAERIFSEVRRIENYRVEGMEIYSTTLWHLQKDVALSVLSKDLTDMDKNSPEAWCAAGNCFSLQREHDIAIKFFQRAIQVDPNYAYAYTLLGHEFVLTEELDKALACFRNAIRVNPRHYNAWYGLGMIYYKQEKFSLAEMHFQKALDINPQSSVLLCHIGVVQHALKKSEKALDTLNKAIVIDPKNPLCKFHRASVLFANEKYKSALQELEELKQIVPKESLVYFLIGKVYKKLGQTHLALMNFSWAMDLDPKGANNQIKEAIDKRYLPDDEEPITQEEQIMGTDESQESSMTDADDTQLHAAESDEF

With “HA-tagged human Cdh1 S40D (from UniProt Q9UM11 1-496) (natural protein)”, the amount coprecipitated, percent of that of Cdh1 S40A is 20% and the amount coprecipitated, percent of that of wild-type Cdh1 came out at 30%.
